From JP2013230152A

Columns and labels:
[1] = biological target: 遺伝子型3aの単離物のE1E2; assay: cell-based or functional assay
[2] = biological target: 遺伝子型5の単離物のE1E2(MAb AP33反応性); assay: cell-based or functional assay
[3] = biological target: H77 E1E2突然変異型G418A (Hepatitis C virus genotype 1a, strain H77) (UniProt P27958); assay: GNA capture EIA, mutant E1E2 from HEK293T cells
[4] = biological target: H77 E1E2突然変異型L413A (Hepatitis C virus genotype 1a, strain H77) (UniProt P27958); assay: GNA capture EIA, mutant E1E2 from HEK293T cells
[5] = biological target: H77 E1E2突然変異型N415A (Hepatitis C virus genotype 1a, strain H77) (UniProt P27958); assay: GNA capture EIA, mutant E1E2 from HEK293T cells
[6] = biological target: H77 E1E2突然変異型Q412A (Hepatitis C virus genotype 1a, strain H77) (UniProt P27958); assay: GNA capture EIA, mutant E1E2 from HEK293T cells
[7] = biological target: H77 E1E2突然変異型W420A (Hepatitis C virus genotype 1a, strain H77) (UniProt P27958); assay: GNA capture EIA, mutant E1E2 from HEK293T cells
[8] = biological target: 412〜423分枝ペプチド (Hepatitis C virus); assay: antibody titration on the 412-423 branched peptide (Figure 10)

Substance: モノクローナル抗体AP33 (antibody)
- IC 50(HCV pp 中和) [1]: 22 µg/mL
- IC 50(HCV pp 中和) [2]: 0.6 µg/mL
- decrease of binding compared with wild type [3]: > 75%
- decrease of binding compared with wild type [4]: > 75%
- decrease of binding compared with wild type [5]: > 75%
- increase of binding compared with wild type H77 [6]: 50%
- decrease of binding compared with wild type [7]: > 75%
- concentration for 50% binding, how much lower than that of MAb 3/11 [8]: > 10
